This note sets out measurements from paper PMC8794075 (Emerging Microbes & Infections, 2022).

For the test, the target named is prefusion-stabilized SARS-CoV-2 S-trimer protein (wild type, Wuhan-Hu-1) (SARS-CoV-2, UniProt P0DTC2). The experiment in a line: cell-based or functional assay.

B1: MAb S3H3 (antibody, V domains shown)
VH: QVQLQQPGAELVRPGASVKLSCKASGYSFTRFWMNWVKQRPGQGLEWIGMIHPSDSETRLNQKFKDKATLTVDKSSTTAYMQLSSPTSEDSAVYYCARKDYDYDAWFAYWGQGTLVTVSA
VL: DIVLTQSPASLAVSLGQRATISCRASKSVSASVYSYMHWYQQKPGQPPKLLIYLASSLESGVPARFSGSGSGTDFTLNIHPVEEEDAATYYCHHSRELPPAFGGGTKLEIK
B1: the “IC50 of neutralisation of WT S pseudovirus” value turned out to be 0.083 µg/mL.
